Data on one substance can be found in paper PMC9555707.

Several values for one entry are separate records, joined by “and”; a condition that tells them apart may be missing. Identical values can stand only once.

The target in the test is SmT1v3-R, tagless resistin-trimerized SARS-CoV-2 spike ectodomain, reference strain (SARS-CoV-2 | human) (UniProt P0DTC2). Put plainly: SEC-MALS; UPLC-SEC on a 4.6 x 300 mm Acquity BEH450 column in PBS + 0.02% Tween-20, coupled to a miniDAWN MALS detector and Optilab T-rEX refractometer; trimer and hexamer populations by molecular weight.

In the case of “SmT1v3-R, tagless resistin-trimerized SARS-CoV-2 spike ectodomain, reference strain (from UniProt P0DTC2 14-1208; Q9HD89-1 23-108)”, the percent of the protein as hexamer stood at 3%; the percent of the protein as trimer came out at 96%; the stoichiometry N was 3 and 6.
